Measurements: US6586252B2, “Nucleic acid molecule encoding the catalytic subunit of a protein phosphatase 2A that regulates flowering time in plants” (Korea Kumho Petrochemical Co., Ltd., priority 2001, dated 2003)

System: phosphorylated oat phytochrome A
Assay: Dephosphorylation of autophosphorylated oat phytochrome A by recombinant PP2AC-JD (SDS-PAGE, autoradiography)
Type: biochemical
Experimental: The oat phytochrome A was first autophosphorylated in the presence of γ[32P]ATP under the light conditions indicated. The recombinant PP2AC-JD protein was expressed via the pGEX-4T-1 expression vector in E. coli strain BL21 as a GST fusion, and the GST tag domain was cleaved out by thrombin digestion. (A) Cation requirements for the PP2AC-JD activity. One μg of the phosphorylated phytoclirome A was incubated with 0.2 μg of the recombinant PP2AC-JD for 30 minutes at room temperature, analysed on 12% SDS-PAGE, and subject to autoradiography. (B) Spectral form-dependent dephosphorylation of the phytochrome A. The Pfr form was a better substrate for the PP2AC-JD than the Pr form.
The enzymatic activity of the protein phosphatase encoded by said nucleic acid molecule can be assayed using a phosphorylated protein, preferentially autophosphorylated phytochromes. The reaction mixture is then analyzed on SDS-PAGE and visualized by autoradiography.
The PCR product containing the PP2AC-JD gene was double-digested with EcoRI and XhoI and incorporated into the pGEX-4T-1 E. coli expression vector, resulting in pG-PP2AC-JD. In this expression construct, the PP2AC-JD gene sequence was in frame fused to the glutathione S-transferase (GST) coding sequence at the N-terminus. The vector construct was transformed into E. coli strain BL21, and the transformants were selected with 100 μg/ml ampicillin. RB medium, rather than LB, was used for induction. Two hundred fifty ml of RB (0.5% yeast extract, 1% tryptone, 0.5% NaCl, 0.2% glucose, pH 7.5 with NaOH) supplemented with ampicillin (100 μg/ml) was inoculated with 3 ml of freshly grown cell culture and incubated at 20° C. with shaking at 250 rpm to an OD600 of 0.6. Expression was induced by adding IPTG (1 μM) and by further shaking at 20° C. for 5 hours. After centrifugation at 5000×g for 5 minutes, the cell pellet was washed in ice-cold 1×Phosphate-Buffered Saline (PBS, 140 mM NaCl, 2.7 mM KCI, 10 mM Na2HPO4, 1.8 mM KH2PO4, pH7.3). […]

B1: PP2AC-JD: recombinant catalytic subunit of a pea protein phosphatase 2A (SEQ ID NO: 2), expressed in E. coli BL21 (protein)
chain: MDLDQWISKVKDGQHLLEDELQLLCEYVKEILIEESNVQPVNSPVTVCGDIHGQFHDLMKLFQTGGHVPETNYIFMGDFVDRGYNSLDVFTILLLLKARYPANITLLRGNHESRQLTQVYGFYDECQRKYGNANATRYCTDVFDYLTLSAIIDGTVLCVHGGLSPDIRTIDQIRVIERNCEIPHEGPFCDLMWSDPEDIETWAVSPRGAGWLFGSRVTSEFNHINNLDLVCRAHQLVQEGLKYMFQDKGLVTVWSAPNYCYRCGNVASILSFNENMEREVKFFTETEENNQMRGPRTGVPYFL
Cations other than Fe2+ or Zn2+
  stimulatory effect of other cations on PP2AC-JD activity: did not show any significant stimulatory effects
In the presence of Fe2+ or Zn2+, 1 μg phytochrome A, 0.2 μg PP2AC-JD, 30 minutes, room temperature
  dephosphorylation of phosphorylated oat phytochrome A: efficiently dephosphorylated
Phytochrome A autophosphorylated under different light conditions
  dephosphorylation of Pfr phytochrome A compared with the Pr spectral form: more efficiently dephosphorylated
